Laboratory results as given in patent US20130040886A1 (BOARD OF TRUSTEES OF THE UNIVERSITY OF ILLINOIS, published 2013).

Tests used:
[1] = target: T1, α11bβ3 integrin (platelet integrin αIIbβ3) from solubilized human platelets (human, UniProt P08514 32-1039; P05106 27-788); assay: peptide affinity column with solubilized human platelets, immunoblot of eluate
T1 construct: mature; Native protein from solubilized human platelets, detected by immunoblot with Abcam antibodies
Description: (§1) On this basis, subsequent experiments examined whether G₁₃SR2ₚₑₚ peptide (SEQ ID NO:5) does indeed directly interact with α11bβ₃ and/or one of its associated proteins in human platelets. In this respect, platelet α11bβ₃ integrin is known to exist in a complex with two cytoplasmic proteins, i.e., talin and kindlin-3 (Tadokoro, et al. (2003) Science 302:103-6; Moser, et al. (2008) Nature Med. 14:325-30). To determine whether G₁₃SR2ₚₑₚ, (SEQ ID NO:5) interacts with any of these proteins (or with the entire α11bβ₃, talin, kindlin-3 complex), peptide affinity columns using G₁₃SR2ₚₑₚ (SEQ ID NO:5) were employed. The affinity purified protein(s) from solubilized human platelets that specifically bound to the G₁₃SR2ₚₑₚ peptide were eluted, and analyzed by western blot for α11bβ₃ integrin, talin and kindlin-3. In similar experiments, the eluates from a peptide column using the G₁₃SR2-Random Peptide (SEQ ID NO:9) were also analyzed. […] This was supported by similar experiments using talin antibodies and the kindlin 3 antibody (Abcam).

[2] = target: T2, kindlin 3 (72 kD) from solubilized human platelets (human, UniProt Q86UX7 1-667); assay: as above
T2 construct: mature; Native cytoplasmic protein from solubilized human platelets
T2 sequence (Q86UX7 whole entry): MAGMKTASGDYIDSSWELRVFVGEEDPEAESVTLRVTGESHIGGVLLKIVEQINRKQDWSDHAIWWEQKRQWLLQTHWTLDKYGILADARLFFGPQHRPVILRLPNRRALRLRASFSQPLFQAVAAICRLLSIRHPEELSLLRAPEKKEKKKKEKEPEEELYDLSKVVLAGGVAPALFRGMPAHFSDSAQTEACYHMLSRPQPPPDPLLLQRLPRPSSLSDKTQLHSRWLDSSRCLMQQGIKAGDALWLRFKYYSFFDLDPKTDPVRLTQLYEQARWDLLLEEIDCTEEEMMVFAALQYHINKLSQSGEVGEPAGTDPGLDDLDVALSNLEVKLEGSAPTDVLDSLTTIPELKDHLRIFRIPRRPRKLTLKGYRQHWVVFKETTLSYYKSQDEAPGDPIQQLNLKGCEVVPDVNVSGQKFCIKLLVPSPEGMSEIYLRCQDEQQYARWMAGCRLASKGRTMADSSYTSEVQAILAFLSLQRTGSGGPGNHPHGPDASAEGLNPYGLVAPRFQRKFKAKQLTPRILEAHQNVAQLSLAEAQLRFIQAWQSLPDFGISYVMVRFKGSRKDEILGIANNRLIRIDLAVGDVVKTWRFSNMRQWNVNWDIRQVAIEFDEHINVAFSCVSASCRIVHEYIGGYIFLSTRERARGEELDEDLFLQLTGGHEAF
Description: as §1

[3] = target: T3, α11bβ3-talin-kindlin 3 complex from solubilized human platelets (human, UniProt P08514 32-1039; P05106 27-788; Q9Y490 1-2541; Q86UX7 1-667); assay: as above
T3 construct: mature
Description: as §1

[4] = target: T1, α11bβ3 integrin (platelet integrin …); assay: peptide affinity column with solubilized human platelets, western blot of eluates
Description: as §1

[5] = target: T2, kindlin 3 (72 kD) from solubilized …; assay: as above
Description: as §1

binding result [1] | binding result [2] | binding result [3] | binding result [4] | binding result [5] | Binder
binds | binds | binds | – | – | VGGQRSERKRWFECFDS (how it was coupled is not described; also called G13SR2pep peptide; Gα13 SR2 peptide)
– | – | – | no binding | no binding | GFDEWEVSFKGCQRRSR (Control peptide immobilised on a peptide column; also called Random Peptide control) [G13SR2-Random Peptide, Gly-Phe-Asp-Glu-Trp-Glu-Val-Ser-Phe-Lys-Gly-Cys-Gln-Arg-Arg-Ser-Arg]
